# Test results as given in paper PMC9058472.
# Biological target: polymerized microtubules (UniProt P68369)
substance,measurement,value
GFP-α-TAT1^DC1 (α-TAT1 with Cluster 1 deleted) (from UniProt Q8K341 1-314) (domain or fragment),microtubule binding against WT α-TAT1,65%
